Measured values: patent publication US20190375835A1

Tests used:
macrophages (FcR) = assay: cell-based or functional assay
soluble TNF-alpha = soluble TNF-alpha (UniProt P01375); assay: cell-based or functional assay
Chain of soluble TNF-alpha (P01375 77-233 limits assumed): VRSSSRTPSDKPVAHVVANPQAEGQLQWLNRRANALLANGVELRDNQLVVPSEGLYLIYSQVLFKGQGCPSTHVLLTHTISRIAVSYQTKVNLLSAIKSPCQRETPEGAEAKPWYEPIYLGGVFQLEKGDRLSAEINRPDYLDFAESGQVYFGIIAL

## transgenically produced adalimumab antibody (purified from the milk of transgenic goats, glycosylated)
Macrophages (FcR)
  phagocytosis (MFI 37°C - MFI 4°C) in the presence of IVIg 1 mg/ml: 13.3 MFI
Soluble TNF-alpha
  phagocytosis value (MFI 37°C - MFI 4°C, arbitrary unit): 15 MFI

## Humira antibody from Abbott (commercial adalimumab)
Macrophages (FcR)
  phagocytosis (MFI 37°C - MFI 4°C) in the presence of IVIg 1 mg/ml: 6.72 MFI
Soluble TNF-alpha
  phagocytosis value (MFI 37°C - MFI 4°C, arbitrary unit): 12.5 MFI
